Measurements as given in article PMC8298264, “Function of cofactor Akirin2 in the regulation of gene expression in model human neutrophil-like HL60 cells” (Bioscience Reports, 2021).

B1: sp¦Q9Y5J7¦TIM9_HUMAN (protein, UniProt Q9Y5J7 2-89, looked up)
Mitochondrial import inner …: AAQIPESDQIKQFKEFLGTYNKLTETCFLDCVKDFTTREVKPEETTCSEHCLQKYLKMTQRISMRFQEYHIQQNEALAAKAGLLGQPR
B2: sp¦Q15007¦FL2D_HUMAN (protein, UniProt Q15007 1-396, looked up)
Pre-mRNA-splicing regulator …: MTNEEPLPKKVRLSETDFKVMARDELILRWKQYEAYVQALEGKYTDLNSNDVTGLRESEEKLKQQQQESARRENILVMRLATKEQEMQECTTQIQYLKQVQQPSVAQLRSTMVDPAINLFFLKMKGELEQTKDKLEQAQNELSAWKFTPDSQTGKKLMAKCRMLIQENQELGRQLSQGRIAQLEAELALQKKYSEELKSSQDELNDFIIQLDEEVEGMQSTILVLQQQLKETRQQLAQYQQQQSQASAPSTSRTTASEPVEQSEATSKDCSRLTNGPSNGSSSRQRTSGSGFHREGNTTEDDFPSSPGNGNKSSNSSEERTGRGGSGYVNQLSAGYESVDSPTGSENSLTHQSNDTDSSHDPQEEKAVSGKGNRTVGSRHVQNGLDSSVNVQGSVL
B3: sp¦O75663¦TIPRL_HUMAN (protein, UniProt O75663 1-272, looked up)
TIP41-like protein: MMIHGFQSSHRDFCFGPWKLTASKTHIMKSADVEKLADELHMPSLPEMMFGDNVLRIQHGSGFGIEFNATDALRCVNNYQGMLKVACAEEWQESRTEGEHSKEVIKPYDWTYTTDYKGTLLGESLKLKVVPTTDHIDTEKLKAREQIKFFEEVLLFEDELHDHGVSSLSVKIRVMPSSFFLLLRFFLRIDGVLIRMNDTRLYHEADKTYMLREYTSRESKISSLMHVPPSLFTEPNEISQYLPIKEAVCEKLIFPERIDPNPADSQKSTQVE
B4: sp¦P49588¦SYAC_HUMAN (protein, UniProt P49588 1-968, looked up)
Alanine--tRNA ligase, …: MDSTLTASEIRQRFIDFFKRNEHTYVHSSATIPLDDPTLLFANAGMNQFKPIFLNTIDPSHPMAKLSRAANTQKCIRAGGKHNDLDDVGKDVYHHTFFEMLGSWSFGDYFKELACKMALELLTQEFGIPIERLYVTYFGGDEAAGLEADLECKQIWQNLGLDDTKILPGNMKDNFWEMGDTGPCGPCSEIHYDRIGGRDAAHLVNQDDPNVLEIWNLVFIQYNREADGILKPLPKKSIDTGMGLERLVSVLQNKMSNYDTDLFVPYFEAIQKGTGARPYTGKVGAEDADGIDMAYRVLADHARTITVALADGGRPDNTGRGYVLRRILRRAVRYAHEKLNASRGFFATLVDVVVQSLGDAFPELKKDPDMVKDIINEEEVQFLKTLSRGRRILDRKIQSLGDSKTIPGDTAWLLYDTYGFPVDLTGLIAEEKGLVVDMDGFEEERKLAQLKSQGKGAGGEDLIMLDIYAIEELRARGLEVTDDSPKYNYHLDSSGSYVFENTVATVMALRREKMFVEEVSTGQECGVVLDKTCFYAEQGGQIYDEGYLVKVDDSSEDKTEFTVKNAQVRGGYVLHIGTIYGDLKVGDQVWLFIDEPRRRPIMSNHTATHILNFALRSVLGEADQKGSLVAPDRLRFDFTAKGAMSTQQIKKAEEIANEMIEAAKAVYTQDCPLAAAKAIQGLRAVFDETYPDPVRVVSIGVPVSELLDDPSGPAGSLTSVEFCGGTHLRNSSHAGAFVIVTEEAIAKGIRRIVAVTGAEAQKALRKAESLKKCLSVMEAKVKAQTAPNKDVQREIADLGEALATAVIPQWQKDELRETLKSLKKVMDDLDRASKADVQKRVLEKTKQFIDSNPNQPLVILEMESGASAKALNEALKLFKMHSPQTSAMLFTVDNEAGKITCLCQVPQNAANRGLKASEWVQQVSGLMDGKGGGKDVSAQATGKNVGCLQEALQLATSFAQLRLGDVKN
B5: sp¦O00567¦NOP56_HUMAN (protein, UniProt O00567 1-594, looked up)
Nucleolar protein 56: MVLLHVLFEHAVGYALLALKEVEEISLLQPQVEESVLNLGKFHSIVRLVAFCPFASSQVALENANAVSEGVVHEDLRLLLETHLPSKKKKVLLGVGDPKIGAAIQEELGYNCQTGGVIAEILRGVRLHFHNLVKGLTDLSACKAQLGLGHSYSRAKVKFNVNRVDNMIIQSISLLDQLDKDINTFSMRVREWYGYHFPELVKIINDNATYCRLAQFIGNRRELNEDKLEKLEELTMDGAKAKAILDASRSSMGMDISAIDLINIESFSSRVVSLSEYRQSLHTYLRSKMSQVAPSLSALIGEAVGARLIAHAGSLTNLAKYPASTVQILGAEKALFRALKTRGNTPKYGLIFHSTFIGRAAAKNKGRISRYLANKCSIASRIDCFSEVPTSVFGEKLREQVEERLSFYETGEIPRKNLDVMKEAMVQAEEAAAEITRKLEKQEKKRLKKEKKRLAALALASSENSSSTPEECEEMSEKPKKKKKQKPQEVPQENGMEDPSISFSKPKKKKSFSKEELMSSDLEETAGSTSIPKRKKSTPKEETVNDPEEAGHRSGSKKKRKFSKEEPVSSGPEEAVGKSSSKKKKKFHKASQED
B6: sp¦Q09161¦NCBP1_HUMAN (protein, UniProt Q09161 1-790, looked up)
Nuclear cap-binding protein …: MSRRRHSDENDGGQPHKRRKTSDANETEDHLESLICKVGEKSACSLESNLEGLAGVLEADLPNYKSKILRLLCTVARLLPEKLTIYTTLVGLLNARNYNFGGEFVEAMIRQLKESLKANNYNEAVYLVRFLSDLVNCHVIAAPSMVAMFENFVSVTQEEDVPQVRRDWYVYAFLSSLPWVGKELYEKKDAEMDRIFANTESYLKRRQKTHVPMLQVWTADKPHPQEEYLDCLWAQIQKLKKDRWQERHILRPYLAFDSILCEALQHNLPPFTPPPHTEDSVYPMPRVIFRMFDYTDDPEGPVMPGSHSVERFVIEENLHCIIKSHWKERKTCAAQLVSYPGKNKIPLNYHIVEVIFAELFQLPAPPHIDVMYTTLLIELCKLQPGSLPQVLAQATEMLYMRLDTMNTTCVDRFINWFSHHLSNFQFRWSWEDWSDCLSQDPESPKPKFVREVLEKCMRLSYHQRILDIVPPTFSALCPANPTCIYKYGDESSNSLPGHSVALCLAVAFKSKATNDEIFSILKDVPNPNQDDDDDEGFSFNPLKIEVFVQTLLHLAAKSFSHSFSALAKFHEVFKTLAESDEGKLHVLRVMFEVWRNHPQMIAVLVDKMIRTQIVDCAAVANWIFSSELSRDFTRLFVWEILHSTIRKMNKHVLKIQKELEEAKEKLARQHKRRSDDDDRSSDRKDGVLEEQIERLQEKVESAQSEQKNLFLVIFQRFIMILTEHLVRCETDGTSVLTPWYKNCIERLQQIFLQHHQIIQQYMVTLENLLFTAELDPHILAVFQQFCALQA
B7: sp¦P08559¦ODPA_HUMAN (protein, UniProt P08559 30-390, looked up)
Pyruvate dehydrogenase E1 …: FANDATFEIKKCDLHRLEEGPPVTTVLTREDGLKYYRMMQTVRRMELKADQLYKQKIIRGFCHLCDGQEACCVGLEAGINPTDHLITAYRAHGFTFTRGLSVREILAELTGRKGGCAKGKGGSMHMYAKNFYGGNGIVGAQVPLGAGIALACKYNGKDEVCLTLYGDGAANQGQIFEAYNMAALWKLPCIFICENNRYGMGTSVERAAASTDYYKRGDFIPGLRVDGMDILCVREATRFAAAYCRSGKGPILMELQTYRYHGHSMSDPGVSYRTREEIQEVRSKSDPIMLLKDRMVNSNLASVEELKEIDVEVRKEIEDAAQFATADPEPPLEELGYHIYSSDPPFEVRGANQWIKFKSVS
B8: sp¦Q9UJZ1¦STML2_HUMAN (protein, UniProt Q9UJZ1 29-356, looked up)
Stomatin-like protein 2, …: SSGLPRNTVVLFVPQQEAWVVERMGRFHRILEPGLNILIPVLDRIRYVQSLKEIVINVPEQSAVTLDNVTLQIDGVLYLRIMDPYKASYGVEDPEYAVTQLAQTTMRSELGKLSLDKVFRERESLNASIVDAINQAADCWGIRCLRYEIKDIHVPPRVKESMQMQVEAERRKRATVLESEGTRESAINVAEGKKQAQILASEAEKAEQINQAAGEASAVLAKAKAKAEAIRILAAALTQHNGDAAASLTVAEQYVSAFSKLAKDSNTILLPSNPGDVTSMVAQAMGVYGALTKAPVPGTPDSLSSGSSRDVQGTDASLDEELDRVKMS

Test system: human HL60 cells
Experiment: SWATH-MS proteomics, differential protein representation, akirin2 KO vs WT HL60 cells
Type: cell-based
Conditions: akirin2 KO vs WT HL60 cells, sheet "Under-represented in KO"
Outline: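 First, proteins from wild-type and knockout cells are digested with trypsin by FASP. Next, pooled IDA runs generate a reference ion library. Then six samples of 5 µg each are acquired by data-independent SWATH, and protein areas are normalized to the summed area of all detected proteins.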

Molecule | Fold Change (KO vs WT) | Log (Fold Change) (KO vs WT) | Fold Change | Log (Fold Change)
B1 | 0.5881 | -0.2305 |  | 
B2 | 0.593 | -0.227 |  | 
B3 | 0.5915 | -0.228 |  | 
B4 | 0.5997 | -0.2221 |  | 
B5 | 0.6041 | -0.2189 |  | 
B6 |  |  | 0.2701 | -0.5684
B7 | 0.6031 | -0.2196 |  | 
B8 | 0.6025 | -0.22 |  | 
